Measurements published in publication PMC4654632 (Journal of molecular biology, 2012).

Assay: HPLC sedimentation assay of fibril thermodynamic stability
Format: physicochemical
Conditions: from Cr (Ka = 1/Cr), PBS pH 7.4, 25 °C

wild-type: wild-type amyloid-β 40-residue peptide (Aβ40), made by Fmoc solid-phase synthesis
ΔG (free energy of association): -7.2 ± 0.2 kcal/mol
